Data from patent US8697369B2, “Method for screening a test substance for activating a receptor associated with FGF 21 activity” (National Institute of Advanced Industrial Science and …, priority 2007, dated 2014).
Entries after “also recorded” stand apart in the source; their conditions may differ.

B1: FGF21: fibroblast growth factor 21; mouse-derived protein used in Examples 1-7 and 10-13 (protein)
chain: AYPIPDSSPLLQFGGQVRQRYLYTDDDQDTEAHLEIREDGTVVGAAHRSPESLLELKALKPGVIQILGVKASRFLCQQPDGALYGSPHFDPEACSFRELLLEDGYNVYQSEAHGLPLRLPQKDSPNQDATSWGPVRFLPMPGLLHEPQDQAGFLPPEPPDVGSSDPLSMVEPLQGRSPSYAS

Columns and labels:
[1] = target: T1, FGFR1c/betaKlotho-expressing BaF3 cells (Mus musculus, UniProt P16092+Q99N32); assay: DNA synthesis (thymidine incorporation) in FGFR1c/betaKlotho-expressing BaF3 cells; type: cell-based; conditions: BaF3 cells expressing FGFR1c and betaKlotho; presence or absence of heparin
T1 construct: the entire-length cDNA of mouse FGFR1c had been cloned; the entire-length cDNA of mouse betaKlotho was cloned into an animal cell expression vector; expressed in transfected cells; host or cells: BaF3 (mouse pro-B) cells
T1 sequence (P16092 22-822): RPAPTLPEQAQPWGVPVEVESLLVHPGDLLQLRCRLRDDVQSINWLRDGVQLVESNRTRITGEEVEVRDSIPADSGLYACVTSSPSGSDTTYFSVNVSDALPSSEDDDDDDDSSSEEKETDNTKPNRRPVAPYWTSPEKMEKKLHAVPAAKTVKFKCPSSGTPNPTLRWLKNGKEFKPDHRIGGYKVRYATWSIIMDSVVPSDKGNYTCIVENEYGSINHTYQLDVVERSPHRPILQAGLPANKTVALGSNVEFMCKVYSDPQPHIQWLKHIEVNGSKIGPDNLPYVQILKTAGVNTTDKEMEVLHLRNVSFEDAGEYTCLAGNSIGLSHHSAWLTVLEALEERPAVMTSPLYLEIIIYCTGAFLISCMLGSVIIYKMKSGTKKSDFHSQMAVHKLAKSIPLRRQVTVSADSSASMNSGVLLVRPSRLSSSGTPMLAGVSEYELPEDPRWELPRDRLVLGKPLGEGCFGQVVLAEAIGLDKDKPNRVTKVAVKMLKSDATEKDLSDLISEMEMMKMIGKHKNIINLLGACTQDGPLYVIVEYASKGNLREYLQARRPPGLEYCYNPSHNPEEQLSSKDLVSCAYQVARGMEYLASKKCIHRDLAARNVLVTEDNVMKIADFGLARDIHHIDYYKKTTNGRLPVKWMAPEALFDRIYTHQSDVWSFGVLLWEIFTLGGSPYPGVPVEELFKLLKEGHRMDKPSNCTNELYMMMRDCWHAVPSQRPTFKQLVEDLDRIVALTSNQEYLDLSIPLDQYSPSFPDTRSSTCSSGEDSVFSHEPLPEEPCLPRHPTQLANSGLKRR
T1 sequence (Q99N32 whole entry): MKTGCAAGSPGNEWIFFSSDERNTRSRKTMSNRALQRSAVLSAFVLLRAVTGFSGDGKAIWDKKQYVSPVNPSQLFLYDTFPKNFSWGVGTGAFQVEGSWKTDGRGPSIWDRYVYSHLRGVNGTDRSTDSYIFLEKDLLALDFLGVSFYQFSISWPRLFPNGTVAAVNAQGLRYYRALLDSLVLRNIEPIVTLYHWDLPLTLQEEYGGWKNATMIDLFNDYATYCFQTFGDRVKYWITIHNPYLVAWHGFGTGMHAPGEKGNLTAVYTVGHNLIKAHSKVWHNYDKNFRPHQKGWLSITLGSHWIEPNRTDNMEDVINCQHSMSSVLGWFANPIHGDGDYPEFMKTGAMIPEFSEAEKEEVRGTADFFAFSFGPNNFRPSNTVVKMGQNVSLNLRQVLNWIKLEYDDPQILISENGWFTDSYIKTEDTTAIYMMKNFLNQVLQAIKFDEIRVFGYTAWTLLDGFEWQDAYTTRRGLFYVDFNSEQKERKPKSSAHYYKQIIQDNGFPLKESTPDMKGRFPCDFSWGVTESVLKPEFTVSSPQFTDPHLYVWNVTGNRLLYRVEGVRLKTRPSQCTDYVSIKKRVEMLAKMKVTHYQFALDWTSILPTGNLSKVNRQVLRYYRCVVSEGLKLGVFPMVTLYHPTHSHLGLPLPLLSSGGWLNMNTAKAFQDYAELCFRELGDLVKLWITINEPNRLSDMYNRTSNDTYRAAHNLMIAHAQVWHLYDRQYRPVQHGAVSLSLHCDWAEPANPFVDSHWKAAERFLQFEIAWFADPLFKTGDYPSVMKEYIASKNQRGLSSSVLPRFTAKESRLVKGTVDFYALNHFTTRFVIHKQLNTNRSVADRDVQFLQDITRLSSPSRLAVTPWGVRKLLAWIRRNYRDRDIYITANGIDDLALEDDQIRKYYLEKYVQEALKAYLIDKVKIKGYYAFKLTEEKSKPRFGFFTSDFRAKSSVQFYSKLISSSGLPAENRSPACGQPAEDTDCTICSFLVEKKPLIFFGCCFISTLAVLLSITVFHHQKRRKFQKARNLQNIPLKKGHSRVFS
Method: (§1) A commonly used measurement method is a cell growth stimulating activity measurement method described in Ornitz, D. M., Xu, J., Colvin, J. S., McEwen, D. G., MacArthur, C. A., Coulier, F., Gao, G. and Goldfarb, M. (1996) Receptor specificity of the fibroblast growth factor family. J Biol Chem, 271, 15292-15297. The summary thereof is as follows. FGF used as a measurement target is added to a culture solution containing a cultured cell having an FGF receptor on the surface thereof, and the obtained mixture is cultured for a certain period of time. Thereafter, a labeled thymidine is added to the culture solution, followed by further culture for a certain period of time. By measuring the amount of the labeled thymidine incorporated into polymeric DNA during the culture, the degree of FGF to activate DNA synthesis is evaluated. (In the present invention as well, this method was adopted when the activity of FGF21 was measured in Examples 4, 5, 6, 8, 9, and 10.)
FGFR1c-expressing BaF3 cells and FGFR1c- and betaKlotho-expressing BaF3 cells were prepared as follows. In the case of FGFR1c-expressing BaF3 cells, an animal cell expression vector into which the entire-length cDNA of mouse FGFR1c had been cloned (described in Ornitz, D. M., Xu, J., Colvin, J. S., McEwen, D. G., MacArthur, C. A., Coulier, F., Gao, G. and Goldfarb, M. (1996) Receptor specificity of the fibroblast growth factor family. J Biol Chem, 271, 15292-15297.) was introduced into BaF3 cells by an electroporation method. The cells were then cultured in the presence of G418 for approximately 2 weeks, so as to obtain drug-resistant clones. Thereafter, such clones were obtained as those capable of growing as a result of FGF1 stimulation. In the case of both FGFR1c- and betaKlotho-expressing BaF3 cells, the entire-length cDNA of mouse betaKlotho was cloned into an animal cell expression vector, and it was then introduced into the FGFR1c-expressing BaF3 cells. The cells were then cultured in the presence of Puromycin and G418 for approximately 2 weeks, so as to obtain drug-resistant clones. In the case of only betaKlotho-expressing BaF3 cells, a betaKlotho-expressing vector was introduced into BaF3 cells, and Puromycin-resistant clones were then obtained. The BaF3 cells, into which the aforementioned genes had been each introduced, were maintained in an RPMI1640 medium containing 10% FBS and interleukin 3 (IL3, supplied by adding a 5% condition medium of WEHI-3 cells). For the growth stimulation experiment, the cells were washed with an RPMI1640 medium, and they were then suspended in an RPMI1640 medium containing 10% FBS, followed by inoculating the suspension on a culture plate. Thereafter, the resultant cells were used.
Immediately after inoculation, BaF3 cells that had expressed each clone and only FGFR1c were stimulated by addition of FGF21 (open bar) or PBS (filled bar) used as a control in the presence of heparin, and they were then cultured for 42 hours. Thereafter, tritium-labeled thymidine was added to the culture solution, and the culture was further continued for 6 hours. Thereafter, the amount of thymidine incorporated into the cells was measured, so as to evaluate DNA synthesis. A DNA synthesis value obtained when the cells were not stimulated with FGF21 was defined as 1, and the ratio of a DNA synthesis value obtained by stimulating with FGF21 to the aforementioned DNA synthesis value was expressed using magnification. […]

[2] = tested on: FGFR4/betaKlotho-expressing BaF3 cells; assay: DNA synthesis (thymidine incorporation) in FGFR4/betaKlotho-expressing BaF3 cells; type: cell-based, mouse; conditions: BaF3 cells expressing FGFR4 and betaKlotho; presence of heparin
Sequence of FGFR4/betaKlotho-expressing BaF3 cells (Q03142 17-366 limits assumed): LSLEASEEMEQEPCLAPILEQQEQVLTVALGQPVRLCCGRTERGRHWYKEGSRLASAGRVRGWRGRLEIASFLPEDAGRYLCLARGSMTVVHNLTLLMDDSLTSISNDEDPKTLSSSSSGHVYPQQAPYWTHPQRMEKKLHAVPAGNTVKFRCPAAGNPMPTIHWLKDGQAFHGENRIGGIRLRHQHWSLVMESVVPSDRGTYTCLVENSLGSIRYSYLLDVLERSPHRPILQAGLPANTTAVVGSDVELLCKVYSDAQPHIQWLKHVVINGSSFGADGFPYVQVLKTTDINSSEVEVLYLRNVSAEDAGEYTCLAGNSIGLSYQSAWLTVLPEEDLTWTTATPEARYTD
Sequence of FGFR4/betaKlotho-expressing BaF3 cells (Q99N32 whole entry, further chain): as the sequence (Q99N32 whole entry) above
Method: as §1
Whether other receptor molecules can also act as such FGF receptors was examined. An expression vector containing each FGFR (FGFR1b, R1c, R2b, R2c, R3b, R3c, and R4) (described in Ornitz, D. M., Xu, J., Colvin, J. S., McEwen, D. G., MacArthur, C. A., Coulier, F., Gao, G. and Goldfarb, M. (1996) Receptor specificity of the fibroblast growth factor family. J Biol Chem, 271, 15292-15297.) was introduced into betaKlotho-expressing BaF3 cells, so as to obtain clones that were resistant to Puromycin and G418, thereby obtaining FGFR/betaKlotho-expressing cells. Such cells were stimulated with FGF21, and the amount of DNA synthesized was measured.
The activity of FGF21 to stimulate the DNA synthesis of BaF3 cells that had expressed each FGFR (FGFR1c, R2c, F3c, and R4) as well as betaKlotho was compared with the activity of FGF19, which was evolutionally relative to FGF21. […] The cells were stimulated with FGF21, FGF19, and FGF1 in the presence of heparin, while changing the amounts of FGF21, FGF19, and FGF1, as shown in the figure, and the amount of DNA synthesized was then measured.

[3] = target: T2, R1c/betaKlotho-expressing cells (Mus musculus, UniProt P16092+Q99N32); assay: Phosphorylation of FRS2 and MAPK (Western blotting) in R1c/betaKlotho-expressing cells; type: cell-based; conditions: presence of heparin; 10 minutes stimulation
T2 construct: the entire-length cDNA of mouse FGFR1c had been cloned; the entire-length cDNA of mouse betaKlotho was cloned into an animal cell expression vector; expressed in transfected cells; host or cells: BaF3 (mouse pro-B) cells
T2 sequence (P16092 22-822): as the sequence (P16092 22-822) above
T2 sequence (Q99N32 whole entry): as the sequence (Q99N32 whole entry) above
Method: Each FGFR/betaKlotho-expressing cells obtained in Example 6 were stimulated with FGF, and the activated state (phosphorylated state) of a signaling molecule FRS2 (fibroblast growth factor receptor substrate 2) located downstream of FGFR, and that of MAPK (mitogen activated protein kinase; alias: ERK (extracellular signal-regulated kinase; in general, there are two types of ERKs, namely, ERK1 with a molecular weight of 44 kDa and ERK2 with a molecular weight of 42 kDa)), were analyzed. Different types of cells were stimulated with each FGF in the presence of heparin for 10 minutes, and a cell lysate was then prepared. Thereafter, the phosphorylated degree was evaluated by measuring it by a Western blotting method using a commercially available anti-phosphorylation FRS2 antibody or an anti-phosphorylation MAPK antibody.

Molecule	DNA synthesis (thymidine incorporated into the cells) [1]	DNA synthesis (thymidine incorporated into the cells) [2]	phosphorylation of FRS2 and MAPK [3]
FGF1: conventional FGF used as a control	reacts with all of the receptors	reacts with all of the receptors	significantly increase the phosphorylation
B1	reacted with FGF21; also recorded: dose-dependently stimulate DNA synthesis; also recorded: activates; also recorded: able to act on FGFR1c-expressing cells	reacts only with FGFR1c and FGFR3c	increases the phosphorylation
